Laboratory results: PMC7237333

Key:
Assay in all cases: purified protein
[1] = system: CSC[C@H]1O[C@@H](n2cnc3c(N)ncnc32)[C@H](O)[C@@H]1O; conditions: 40 mM K-phosphate pH 7.8, 0.1 M MgCl2, 30 °C
[2] = system: C[C@H]1O[C@@H](n2cnc3c(N)ncnc32)[C@H](O)[C@@H]1O; conditions: 40 mM K-phosphate pH 7.8, 0.1 M MgCl2, 30 °C
purified protein [3] = substrate: C[C@H]1O[C@H](OP(=O)(O)O)[C@H](O)[C@@H]1O; format: biochemical, Escherichia coli; conditions: 50 mM K-phosphate pH 7.8, 5 mM MgCl2, 0.3 mM CoCl2, 30 °C
purified protein [4] = substrate: CSC[C@H]1O[C@H](OP(=O)(O)O)[C@H](O)[C@@H]1O; format: biochemical, Escherichia coli; conditions: 50 mM K-phosphate pH 7.8, 5 mM MgCl2, 0.3 mM CoCl2, 30 °C
purified protein [5] = substrate: CSC[C@H]1O[C@H](OP(=O)(O)O)[C@H](O)[C@@H]1O; format: biochemical, Bacillus subtilis; conditions: 50 mM K-phosphate pH 7.8, 5 mM MgCl2, 0.3 mM CoCl2, 30 °C
purified protein [6] = substrate: CSC[C@@H](O)[C@@H](O)C(=O)COP(=O)(O)O; format: biochemical, Bacillus subtilis; conditions: 30 °C (also performed at 35 °C)
purified protein [7] = substrate: C[C@@H](O)[C@@H](O)C(=O)COP(=O)(O)O; format: biochemical, Bacillus subtilis; conditions: 35 °C probably (used for weak substrates); 35.0 °C
purified protein [8] = substrate: O=P(O)(O)O[C@H]1O[C@H](CO)[C@@H](O)[C@H]1O; format: biochemical, Rhodospirillum rubrum; conditions: 50 mM K-phosphate pH 7.8, 5 mM MgCl2, 0.3 mM CoCl2, 30 °C

Q: Which results are given for EcMtnN (Escherichia coli K-12)?
A: Km [1]: 0.83 µM; kcat [1]: 150 s⁻¹; kcat/Km [1]: 1.8e+08 M⁻¹ s⁻¹; Km [2]: 4.7 µM; kcat [2]: 57 s⁻¹; kcat/Km [2]: 1.2e+07 M⁻¹ s⁻¹

B1: EcMtnA (Escherichia coli S88) (protein)
chain: MNIKGKHYRTVWVSGDGKAVEIIDQTKLPFKFEVVALTSAEMAATAIQDMWVRGAPLIGVVAAYGIALGMNHDASDMGLQRYYDLLIKTRPTAINLKWALDRMIDTLKDLCVSERKDVAWALAAEIAEEDVALCEQIGLHGAEVIREIAQKKPAGSVVNILTHCNAGWLATVDWGTALSPIYKAHENGIPVHVWVDETRPRNQGGLTAFELGSHGIPHTLIADNAGGHLMQHGDVDLCIVGTDRTTARGDVCNKIGTYLKALAAHDNHVPFYVALPSPTIDWTIEDGKSIPIEQRDGKEQSHVYGINPQGELSWVNTAPEGTRCGNYAFDVTPARYITGFITERGVCAASKSALADMFADLKSKALQGEQH
Q: Which Km (purified protein [3]) does the source give for B1 here?
A: 222 µM

Q: What about the kcat (purified protein [3]) of the same molecule?
A: 2.02 s⁻¹

Q: What about the kcat/Km (purified protein [3]) of the same molecule?
A: 9100 M⁻¹ s⁻¹

Q: What about the Km (purified protein [4]) of the same molecule?
A: 50 µM

Q: What about the kcat (purified protein [4]) of the same molecule?
A: 0.49 s⁻¹

Q: And the kcat/Km (purified protein [4])?
A: 9800 M⁻¹ s⁻¹

B2: BsMtnA (Bacillus subtilis subsp. subtilis str. 168) (protein)
chain: MTHSFAVPRSVEWKETAITILNQQKLPDETEYLELTTKEDVFDAIVTLKVRGAPAIGITAAFGLALAAKDIETDNVTEFRRRLEDIKQYLNSSRPTAINLSWALERLSHSVENAISVNEAKTNLVHEAIQIQVEDEETCRLIGQNALQLFKKGDRIMTICNAGSIATSRYGTALAPFYLAKQKDLGLHIYACETRPVLQGSRLTAWELMQGGIDVTLITDSMAAHTMKEKQISAVIVGADRIAKNGDTANKIGTYGLAILANAFDIPFFVAAPLSTFDTKVKCGADIPIEERDPEEVRQISGVRTAPSNVPVFNPAFDITPHDLISGIITEKGIMTGNYEEEIEQLFKGEKVH
Q: B2 was tested. Which Km (purified protein [5]) did it give?
A: 114 µM

Q: What about the kcat (purified protein [5]) of the same molecule?
A: 3.9 s⁻¹

Q: What about the kcat/Km (purified protein [5]) of the same molecule?
A: 35000 M⁻¹ s⁻¹

B3: Bs MtnB (Bacillus subtilis subsp. subtilis str. 168) (protein)
chain: MAAKQERWRELAEVKRELAERDWFPATSGNLSIKVTDEPLTFLVTASGKDKRKETVEDFLLVDQNGEPAESGHSLKPSAETLLHTHLYNKTNAGCCLHVHTVNNNVISELYGDQKKITFKGQEIIKALGLWEENAEVTVPIIENPAHIPTLAALFAEEISEDSGAVLIRNHGITAWGKTAFEAKRVLEAYEFLFSYHLKLKTLEHQLVK
Q: For B3, which Km (purified protein [6]) is on record?
A: 24 µM

Q: And the kcat (purified protein [6])?
A: 16 s⁻¹

Q: And the kcat/Km (purified protein [6])?
A: 670000 M⁻¹ s⁻¹

Q: And the Km (purified protein [7])?
A: 315 µM

Q: And the kcat (purified protein [7])?
A: 0.053 s⁻¹

Q: And the kcat/Km (purified protein [7])?
A: 200 M⁻¹ s⁻¹

B4: RrMtnA (Rhodospirillum rubrum ATCC 11170) (protein)
chain: MNVKGTPTRTIWPAREGGAVWIIDQTRLPHEFVTQRLNDLGAVAHAIRAMLVRGAPLIGATAAYGVALGMAEDPSDEGLTRACQTLLATRPTAVNLRWAIEAMAESLAAVPPDQRAQAAWAKAGAICDEDVALNEAIGDHGLGIIKDLARTKGVEKGGEGPINILTHCNAGWLATVDWGTALAPLYKAHDAGLPIHVWVDETRPRNQGASLTAWELNSHGVPHTVIADNTGGHLMQHGLVDMVIVGTDRTTATGDVCNKIGTYLKALAAFDNAVPFYVALPGPTIDWTVNDGLREIPIEQRDAAEVTRVWGRTAAGALEWVTITPTGSPAANYAFDVTPARLITGLITERGVCAASAAGLAGLYPERAPAPVPAGSAAGKGAAATADGAL
Q: With B4 as the molecule, how does the kcat (purified protein [8]) read?
A: 0.03 s⁻¹

Q: And the kcat/Km (purified protein [8])?
A: < 20 M⁻¹ s⁻¹
